For one molecule, percent drop in binding against wild type results are on record in paper PMC3232246.

The target in this assay is EGFP-tagged Rac1-Y64F (human), P63000. Put plainly: co-IP; MEF co-transfected with an EGFP-Rac1 construct and Flag-βPIX, Myc-Tiam1 or Myc-RhoGDI; modified RIPA buffer; 800 µg lysate, anti-GFP antibody and protein A sepharose, 4 °C; blots with anti-Flag or anti-Myc, normalised to the precipitated EGFP-Rac1. The settings on record: remark: other sources report otherwise.

B1: Myc-tagged RhoGDI, P52565 1-204 (natural protein)
chain: MAEQEPTAEQLAQIAAENEEDEHSVNYKPPAQKSIQEIQELDKDDESLRKYKEALLGRVAVSADPNVPNVVVTGLTLVCSSAPGPLELDLTGDLESFKKQSFVLKEGVEYRIKISFRVNREIVSGMKYIQHTYRKGVKIDKTDYMVGSYGPRAEEYEFLTPVEEAPKGMLARGSYSIKSRFTDDDKTDHLSWEWNLTIKKDWKD
Consider B1, for which the percent drop in binding against wild type was over 50%.
